Assay results published in patent US20130072665A1 (Amgen, published 2013).
Like-named read-outs stand apart in the source and are kept apart here. One block for each binder: values may come before it.

Assays:
[1] = target: T1, PCSK9 ProCat (31-449 of SEQ ID NO: 3) (human, UniProt Q8NBP7 27-449); assay: domain binding ELISA (coated antibody captures the PCSK9 form; OD650)
T1 construct: From PCSK9 449TEV after rTEV cleavage: GAMG-PCSK9 (31-449)-ENLYFQ; Written as one chain; autocatalysis between 152 and 153 splits pro-domain and catalytic domain; also called procat PCSK9; PCSK9 31-449

[2] = target: T2, PCSK9 V domain (450-692 of SEQ ID NO: 3) (human, UniProt Q8NBP7 450-692); assay: as above
T2 construct: also called v-domain PCSK9
T2 chain: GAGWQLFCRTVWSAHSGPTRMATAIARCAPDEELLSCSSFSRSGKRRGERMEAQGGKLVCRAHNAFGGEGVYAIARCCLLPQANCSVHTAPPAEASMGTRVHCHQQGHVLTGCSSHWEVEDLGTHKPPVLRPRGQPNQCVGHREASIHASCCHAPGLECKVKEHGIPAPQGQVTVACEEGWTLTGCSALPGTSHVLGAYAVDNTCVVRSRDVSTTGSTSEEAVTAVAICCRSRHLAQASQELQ

[3] = target: T3, human PCSK9 (proprotein convertase subtilisin kexin type 9) (human, UniProt Q8NBP7 31-692); assay: BIAcore solution equilibrium, pH 6.0
T3 construct: Used untagged, biotinylated, V5/His- or His-tagged depending on the assay; also called hPCSK9; huPCSK9

[4] = target: T3, human PCSK9 (proprotein convertase …); assay: BIAcore solution equilibrium, pH 5.5
[5] = target: T3, human PCSK9 (proprotein convertase …); assay: BIAcore solution equilibrium, pH 7.4
[6] = target: T3, human PCSK9 (proprotein convertase …); assay: BIAcore kinetic assay 2, antibody captured, pH 7.4
[7] = target: T3, human PCSK9 (proprotein convertase …); assay: BIAcore kinetic assay 2
[8] = target: T3, human PCSK9 (proprotein convertase …); assay: BIAcore kinetic assay 2, antibody captured, pH 5.5
[9] = target: T3, human PCSK9 (proprotein convertase …); assay: BIAcore kinetic assay 2, antibody captured, pH 6.0
[10] = target: T3, human PCSK9 (proprotein convertase …); assay: BIAcore kinetic assay 1, His-tagged huPCSK9 captured, pH 6.0
[11] = target: T1, PCSK9 ProCat (31-449 of SEQ ID NO: 3); assay: domain binding ELISA (coated antibody captures the PCSK9 form; OD650); remark: listed apart in the source
[12] = target: T2, PCSK9 V domain (450-692 of SEQ ID NO: 3); assay: as above
[13] = target: T3, human PCSK9 (proprotein convertase …); assay: BIAcore kinetic assay 1, His-tagged huPCSK9 captured, pH 7.4
[14] = target: T3, human PCSK9 (proprotein convertase …); assay: BIAcore kinetic assay 1, His-tagged huPCSK9 captured, pH 5.5
[15] = target: T3, human PCSK9 (proprotein convertase …); assay: BIAcore solution equilibrium, pH 7.4; pH 7.4
[16] = target: T2, PCSK9 V domain (450-692 of SEQ ID NO: 3); assay: native PAGE gel shift
[17] = target: T2, PCSK9 V domain (450-692 of SEQ ID NO: 3); assay: domain binding ELISA
16F12, anti-PCSK9 huIgG4 = target: T4, 16F12, anti-PCSK9 huIgG4; assay: KinExA solution equilibrium, % free 16F12 (100 pM) against [mPCSK9]
T4 construct: from hybridoma; also called 16F12 IgG4; 16F12.1
T4 sequence (VH, as listed by the source, chain 1 of 2): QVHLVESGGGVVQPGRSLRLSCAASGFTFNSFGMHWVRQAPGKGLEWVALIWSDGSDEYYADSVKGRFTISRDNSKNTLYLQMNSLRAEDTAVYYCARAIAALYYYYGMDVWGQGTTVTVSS
T4 sequence (V domain, as listed by the source, chain 2 of 2): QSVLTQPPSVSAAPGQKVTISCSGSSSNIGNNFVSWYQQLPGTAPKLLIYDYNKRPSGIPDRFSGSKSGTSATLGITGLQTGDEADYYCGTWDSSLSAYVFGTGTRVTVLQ

31H4, anti-PCSK9 huIgG4 = target: T5, 31H4, anti-PCSK9 huIgG4; assay: KinExA solution equilibrium, % free 31H4.1 (100 pM) against [mPCSK9]
T5 construct: from hybridoma

B1: 13H1 (antibody, V domains shown)
VH: QVQLQQSGPGLVKPSQTLSLTCAISGDSVSSNSAAWNWIRQSPSRGLEWLGRTYYRSKWYKNYSVSVKSRITINPDTSKNQFSLQLNSVTPGDTAVYYCARGGPTAAFDYWGQGTLVTVSS
VL: LSALTQPASVSGSPGQSITISCTGTSSDVGNYNLVSWYQQYSGKAPKLMIYEVSKRPSGVSNRFSGSKSGNTASLTISGLQAEDEADYYCCSYAGSSTLVFGGGTKLTVL
- binding result [1]: binds
- binding result [2]: no binding

B2: 23B5 (antibody, V domains shown)
VH: EVQLLESGGGLVQPGGSLRLSCAASGFTFSSYAMNWVRQAPGKGLEWVSTISGSGDNTYYADSVKGRFTISRDNSKNTLYLQMNSLRAEDTAVYYCAKKFVLMVYAMLDYWGQGTLVTVSS
VL: DILMTQSPSSLSASVGDRVTITCRASQSISSYLNWYQQKPGKAPKVLIYAASSLQSGVPSRFSGSGSGTDFTLTINSLQPEDFATYYCQQSYSSPITFGQGTRLEIK
- Kd [3]: 0.2 nM
- binding result [1]: binds
- binding result [2]: no binding
- Kd [4]: 0.28 nM
- Kd [5]: 0.1 nM

B3: 25G4 (antibody, V domains shown)
VH: EVQLLESGGGLVQPGGSLRLSCAASGFTFSSYAMNWVRQAPGKGLEWVSTISGSGGNTYYADSVKGRFTISRDNSKNTLYLQMNSLRAEDTAVYYCAKKFVLMVYAMLDYWGQGTLVTVSS
VL: DIQMTQSPSSLSASVGDRVTITCRASQSISIYLNWYQQKPGKAPYLLIYAAASLQSGVPSRFSGSGSGTDFTLTISSLQPEDFATYYCQQSYSAPITFGQGTRLEIK
- binding result [1]: binds
- binding result [2]: no binding

B4: 27B2 (antibody, V domains shown)
VH: QVQLQESGPGLVKPSQTLSLTCTVSGGSISSGGYYWSWIRQHPGKGLEWIGYIYNSGSTYYNPSLKSRVTISVDTSKNQFSLKLSSVTAADTAVYYCAREDTAMVPYFDYWGQGTLVTVSS
VL: QSVLTQPPSVSGAPGQRVTISCTGSSSNIGAHYDVHWYQQVPGTAPKLLIYGNTYRPSGVPDRFSGSKSGTSASLAITGLQAEDEADYYCQSYDNSLSGVVFGGGTKLTVL
notes: also called 27B2.3; 27B2.3-7.4
- koff [6]: 0.00038 s⁻¹
- off rate ratio pH 5.5/pH 7.4 [7]: 1.4
- off rate ratio pH 6.0/pH 7.4 [7]: 1.3
- koff [8]: 0.00052 s⁻¹
- koff [9]: 0.00051 s⁻¹

B5: 1A12 (antibody, V domains shown)
VH: EVQLVESGGGLVQPGGSLRLSCAASGLTFSNFWMSWVRQAPGKGLEWVANIKQDGSEKYYVDSVKGRFTISRDNAKNSLYLQMNSLRAEDTAVYSCTRESNWGFAFDIWGQGTMVTVSS
VL: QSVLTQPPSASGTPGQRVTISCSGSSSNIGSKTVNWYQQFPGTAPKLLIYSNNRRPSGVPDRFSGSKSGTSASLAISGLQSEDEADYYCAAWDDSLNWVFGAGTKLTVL
notes: also called 1A12.2
- Kd [10]: 1.3 nM
- Kd [3]: 1 nM
- binding result [11]: binds
- binding result [12]: no binding
- Kd [13]: 0.4 nM
- Kd [14]: 1.4 nM
- Kd [4]: 1.1 nM
- Kd [5]: 0.56 nM

B6: 9C9 (antibody, V domains shown)
VH: EVQLVESGGGLVQPGGSLRLSCVVSGFTFSSYWMSWVRQAPGKGLEWVANIKQDGSEKYYVDSVKGRFTISRDNAKNSLYLQMNSLRAEDTAVYYCARESNWGFAFDIWGQGTMVTVSS
VL: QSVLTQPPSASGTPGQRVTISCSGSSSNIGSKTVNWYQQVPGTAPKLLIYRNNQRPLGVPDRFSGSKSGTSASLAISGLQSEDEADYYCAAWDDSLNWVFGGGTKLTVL
- Kd [10]: 2.3 nM
- Kd [3]: 2.3 nM
- Kd [15]: 0.56 nM
- Kd [13]: 0.56 nM
- Kd [14]: 3.2 nM
- Kd [4]: 3.2 nM

B7: 9H6 (antibody, V domains shown)
VH: EVQLVESGGGLVQPGGSLRLSCAASGFTFSRYWMSWVRQAPGKGLEWVANIKHDGSEKYYVDSVKGRFTISRDNAKNSLYLQMNSLRAEDTAVYYCARESNWGFAFDVWGHGTMVTVSS
VL: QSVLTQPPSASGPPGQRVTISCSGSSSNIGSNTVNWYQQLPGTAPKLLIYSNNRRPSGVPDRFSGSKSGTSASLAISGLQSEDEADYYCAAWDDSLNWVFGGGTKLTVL
- Kd [3]: 1.3 nM
- binding result [1]: binds
- binding result [2]: no binding
- Kd [4]: 1.4 nM
- Kd [5]: 0.7 nM

B9: 26H5 (antibody, V domains shown)
VH: QVQLVQSGAEVKKPGASVKVSCKASGYTLTSYGISWVRQAPGQGLEWMGWISFYNGNTNYAQKVQGRVTMTTDTSTSTVYMELRSLRSDDTAVYYCARGYGMDVWGQGTTVTVSS
VL: QSALTQPASVSGSPGQSITISCTGTSSDVGGYNSVSWYQQHPGKPPKLMIYEVSNRPSGVSIRFSGSKSGNTASLTISGLQAEDEADYFCSSYTSTSMVFGGGTKLTVL
notes: also called 26H5-7.4
- binding result [11]: binds
- binding result [12]: no binding
- koff [6]: 0.00056 s⁻¹
- off rate ratio pH 5.5/pH 7.4 [7]: 0.5
- off rate ratio pH 6.0/pH 7.4 [7]: 0.8
- koff [8]: 0.00026 s⁻¹
- koff [9]: 0.00047 s⁻¹

Next, values leading:

- binding result [16]: no binding
B8: 21B12 (antibody, V domains shown)
VH: QVQLVQSGAEVKKPGASVKVSCKASGYTLTSYGISWVRQAPGQGLEWMGWVSFYNGNTNYAQKLQGRGTMTTDPSTSTAYMELRSLRSDDTAVYYCARGYGMDVWGQGTTVTVSS
VL: QSALTQPASVSGSPGQSITISCTGTSSDVGGYNSVSWYQQHPGKAPKLMIYEVSNRPSGVSNRFSGSKSGNTASLTISGLQAEDEADYYCNSYTSTSMVFGGGTKLTVL
notes: lambda light chain; also called ABP 21B12; Ab 21B12

- binding result [17]: binds
B10: 3C4 (antibody, V domains shown)
VH: QVQLQESGPGLVKPSQTLSLTCTVSGGSISSSDYYWSWIRQHPGKGLEWIGYIYYSGSTYYNPSLKSRITISVDTSKNLFSLKLSSVTAADTAVYYCARGGVTTYYYAMDVWGQGTTVTVSS
VL: DIQMTQSPSSLSASVGDRVTITCRASQRISNYLSWYLQKPGIAPKLLIYAASSLQSGVPSRFSGSGSGTDFTLTISSLQSEDFATYYCQQSYSTPLIFGGGTKVEIK

- IC50 (read off the curve) (16F12, anti-PCSK9 huIgG4): ~0.4 nM
- IC50 (read off the curve) (31H4, anti-PCSK9 huIgG4): ~0.6 nM
B11: mouse PCSK9 (enzyme, UniProt Q80W65 35-694, looked up, not shown: small tags and cut ends)
chain: QDEDGDYEELMLALPSQEDGLADEAAHVATATFRRCSKEAWRLPGTYIVVLMEETQRLQIEQTAHRLQTRAARRGYVIKVLHIFYDLFPGFLVKMSSDLLGLALKLPHVEYIEEDSFVFAQSIPWNLERIIPAWHQTEEDRSPDGSSQVEVYLLDTSIQGAHREIEGRVTITDFNSVPEEDGTRFHRQASKCDSHGTHLAGVVSGRDAGVAKGTSLHSLRVLNCQGKGTVSGTLIGLEFIRKSQLIQPSGPLVVLLPLAGGYSRILNAACRHLARTGVVLVAAAGNFRDDACLYSPASAPEVITVGATNAQDQPVTLGTLGTNFGRCVDLFAPGKDIIGASSDCSTCFMSQSGTSQAAAHVAGIVARMLSREPTLTLAELRQRLIHFSTKDVINMAWFPEDQQVLTPNLVATLPPSTHETGGQLLCRTVWSAHSGPTRTATATARCAPEEELLSCSSFSRSGRRRGDWIEAIGGQQVCKALNAFGGEGVYAVARCCLVPRANCSIHNTPAARAGLETHVHCHQKDHVLTGCSFHWEVEDLSVRRQPALRSRRQPGQCVGHQAASVYASCCHAPGLECKIKEHGISGPSEQVTVACEAGWTLTGCNVLPGASLTLGAYSVDNLCVARVHDTARADRTSGEATVAAAICCRSRPSAKASWVQ
notes: biotinylated, tag not mentioned, in the hybridoma screen; also called mPCSK9-8xHIS; mPCSK9

- binding result [1]: binds
- binding result [2]: no binding
B12: 30A4 (antibody, V domains shown)
VH: QVQLVESGGGVVQPGRSLRLSCAASGFTFSSYGMHWVRQAPGKGLEWVAVIWYDGSDKYYADSVKGRFTISRDNSKNTLYLQMNSLRAEDTAVYYCARETGPLKLYYYGMDVWGQGTTVTVSS
VL: DIVMTQSPLSLSVTPGEPPSISCRSSQSLLHSNGYNFLNWYLQKPGQSPQLLIYLGSHRASGVPDRFSGSGSGTDFTLEISRVEAEDVGVYYCMQVLQTPFTFGPGTKVDIK
